From PMC3639047 come the findings set out here.

This experiment addresses His6-human talin (human) (UniProt Q9Y490). Briefly: pull-down.

B1: His6-vinculin head (Vh), vinculin D1 domain (amino acid residues 1–258) (domain or fragment)
chain: MPVFHTRTIESILEPVAQQISHLVIMHEEGEVDGKAIPDLTAPVSAVQAAVSNLVRVGKETVQTTEDQILKRDMPPAFIKVENACTKLVRAAQMLQADPYSVPARDYLIDGSRGILSGTSDLLLTFDEAEVRKIIRVCKGILEYLTVAEVVETMEDLVTYTKNLGPGMTKMAKMIDERQQELTHQEHRVMLVNSMNTVKELLPVLISAMKIFVTTKNTKSQGIEEALKNRNFTVEKMSAEINEIIRVLQLTSWDEDAW
B1: the fold lower IC50 than that of the RIAM peptide stood at 100 fold.
